T1: human IL-2 receptor βγc heterodimer (hIL-2Rβγc), soluble (human, UniProt P14784 27-240; P31785 23-254, biotin on the C-terminal biotin acceptor peptide)
T1 construct: also called HsIL-2Rβγc; hIL-2Rβνc
T1 sequence 1: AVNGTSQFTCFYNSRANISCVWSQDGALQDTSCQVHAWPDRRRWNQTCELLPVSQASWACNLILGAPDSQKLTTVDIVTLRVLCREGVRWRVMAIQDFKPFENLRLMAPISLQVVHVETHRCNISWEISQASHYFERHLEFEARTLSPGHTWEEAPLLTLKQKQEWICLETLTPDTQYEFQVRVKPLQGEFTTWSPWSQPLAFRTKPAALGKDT
T1 sequence 2: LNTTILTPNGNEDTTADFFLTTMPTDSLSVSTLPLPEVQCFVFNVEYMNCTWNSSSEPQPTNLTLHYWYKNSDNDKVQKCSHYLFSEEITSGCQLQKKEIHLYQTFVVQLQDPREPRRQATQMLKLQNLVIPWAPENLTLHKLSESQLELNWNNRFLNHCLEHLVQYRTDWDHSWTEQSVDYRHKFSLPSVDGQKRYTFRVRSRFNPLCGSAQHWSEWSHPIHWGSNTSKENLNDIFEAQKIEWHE

T2: mouse IL-2 receptor βγc heterodimer (mIL-2Rβγc), soluble (mouse, UniProt P16297 27-240; P34902 23-263, biotin on the C-terminal biotin acceptor peptide)
T2 construct: extracellular domain; also called MmIL-2Rβγc; mIL-2Rβνc
T2 sequence 1: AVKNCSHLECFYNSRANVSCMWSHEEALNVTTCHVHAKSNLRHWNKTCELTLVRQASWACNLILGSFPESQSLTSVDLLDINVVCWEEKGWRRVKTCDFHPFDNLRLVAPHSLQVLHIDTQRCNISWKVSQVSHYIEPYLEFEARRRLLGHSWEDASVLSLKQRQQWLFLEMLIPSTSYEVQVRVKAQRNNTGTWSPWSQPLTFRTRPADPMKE
T2 sequence 2: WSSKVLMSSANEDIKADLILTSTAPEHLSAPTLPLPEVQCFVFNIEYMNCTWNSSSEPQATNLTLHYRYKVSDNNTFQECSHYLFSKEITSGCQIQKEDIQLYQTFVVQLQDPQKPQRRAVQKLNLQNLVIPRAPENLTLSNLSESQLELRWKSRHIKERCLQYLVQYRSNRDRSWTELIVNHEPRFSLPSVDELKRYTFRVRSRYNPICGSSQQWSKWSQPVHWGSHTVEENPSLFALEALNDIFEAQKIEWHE

B1: G1_neo2_40_1F (designed binder)
chain: STKKTQLLAEHALLDALMMLNLLPEPNEKLNRIITTMQSWIFTGKIDGDGAQELAKEVEELEQEHEKRGIDVEDYASNLKVILLELA
notes: also called G1_ne02_40_1F
B2: G2_neo2_40_1F_dsn36 (designed binder)
chain: PKKKIQLLAEHALLDALMILNIVKTNSQNAEEKLEDYASNVEVILEEIARLMESGDQKDEAEKAKRMKEWMKRIKTTASEDEQEEMANRIITLLQSWIFS
notes: E. coli, N-terminal 6xHis tag and thrombin site
B3: mouse interleukin-2 (mIL-2) (ligand, UniProt P04351 21-169, looked up)
chain: APTSSSTSSSTAEAQQQQQQQQQQQQHLEQLLMDLQELLSRMENYRNLKLPRMLTFKFYLPKQATELKDLQCLEDELGPLRHVLDLTQSKSFQLEDAENFISNIRVTVVKLKGSDNTFECQFDDESATVVDFLRRWIAFCQSIISTSPQ
notes: range 1-149; Baculovirus expression for SPR; also called MmIL-2; mouse IL-2

For the first assay, the target named is T1, human IL-2 receptor βγc heterodimer …. Description: SPR, equilibrium titration; IL-2Rγ on streptavidin chip, saturating IL-2Rβ in solution.
For the molecule B1, the affinity, expressed as Kd, was 2.3 nM.
The same measure, in the same setting: with B2 the figure was 114 nM.
With B3, binding was characterised by a dissociation constant (Kd) of 8030 nM. Against the preceding molecule, the Kd is about 70-fold higher.

For the next assay, the target named is T2, mouse IL-2 receptor βγc heterodimer …. Described as above.
For the molecule B1, the Kd came to 7.9 nM.
Still for that read-out and setting: with B2 the figure was 568 nM; with B3, 126 nM.

As a reminder, the Kd is the equilibrium constant for the complex coming apart. Lower therefore signals a tighter complex.

The record behind these values is US20200339648A1 (University of Washington, published 2020).
